Measured values published in US20240228645A1 (DRAGONFLY THERAPEUTICS, published 2024).
Residue numbers refer to the chain shown, from its start. Like-named read-outs stand apart in the source and are kept apart here. Each block holds one binder with its values, some of them ahead of it.

Columns and labels:
[1] = biological target: T1, human BAFF-R expressed on cells (hBAFF-R-CHO isogenic CHO cells; BAFF-R+ cancer cells) (human, UniProt Q96RJ3 1-184); test: flow cytometry on hBAFFR-CHO cells, anti-mouse IgG(H+L)-PE
T1 construct: whole, on cells; also called hBAFF-R^+ cells; BAFF-R+ CHO cells

[2] = biological target: T1, human BAFF-R expressed on cells …; test: as above; remark: listed apart in the source

EC50 (read off the curve) [1]: ~0.3 nM
B1: 3A1 (antibody, V domains shown)
VH: QVQLQQPGAELVKPGASVKLSCKASGYTFTSYWMHWVKQRPGQGLEWIGEIDPFDSYTNYNQNFKGKATLTVDKSSSTAYMLLSSLTSDDSAVYYCARERLRLWSYYFDYWGQGTTLTVSS
VL: DVVMTQTPLSLPVSLGDQASISCRSSQSIVHSNGNTYLEWYLQKPGQSPKLLIYKVSNRLSGVPDRFSGSGSGTDFTLKISRVEAEDLGVYYCFQGSHDPFTFGSGTKLEIK
notes: Hybridoma clone from DNA-immunized SWR/J mice; also called clone 3A1

EC50 (read off the curve) [1]: ~0.3 nM
B2: 7G4 (antibody, V domains shown)
VH: B1 VH with I51V, F54S, N63K, M81I, S85N, L101V, Y107F
VL: B1 VL
notes: Hybridoma clone from DNA-immunized SWR/J mice; also called clone 7G4

EC50 (read off the curve) [2]: ~1 nM
B3: 10H7-C5 (antibody, V domains shown)
VH: EVQLVESGGGLVKPGGSLKLSCAASGFSFSRYAMSWVRQTPEKRLEWVATISDGGSYTHYRDNVKGRFTISRDNAKNNLNLQMSHLKSEDTAIYYCARNEMGLYFDYDVYAMDYWGQGTSVTVSS
VL: DIVMTQTPLSLPVSLGDQASISCRSSQSLLHSNGNTYLYWYLQKPGQSPKLLIHRVSNRFSGVPDRFGGSGSGTDFTLKIIRVEAEDLGVYFCFQGTHVPWTFGGGTKLEIK
notes: Hybridoma clone from DNA-immunized SWR/J mice; also called clone 10H7-C5

EC50 (read off the curve) [2]: 1 to 2 nM
B4: 1B3-A7 (antibody, V domains shown)
VH: EVQLVESGGGLVKPGGSLKLSCVVSGFTFSNYAMSWVRQTPEKRLEWVATISDGGGYTYYPDSVKGRFTISRDNAKNNLYLQMSHLKSEDTAIYYCARDDLGGGNYVSSYFDVWGTGTTVTVSS
VL: B3 VL with I2V, L15P, L30V, H54Y, G68S, I81N, W101L, G105S, I111L
notes: Hybridoma clone from DNA-immunized SWR/J mice; also called clone 1B3-A7
